Patent US20120172298A1, “GLP-1 AND FGF21 COMBINATIONS FOR TREATMENT OF DIABETES TYPE 2” (Novo Nordisk A/S, priority 2009, published 2012)
Where “and” joins values, the source holds several entries; their conditions need not be identical. Equal values may be shown once.

Test system: pancreatic islets from diabetic db/db mice
Assay: Restoration of glucose stimulated insulin release ex vivo (islet perifusion)
Format: cell-based
Design: AUC for time 35-75 minutes (glucose response), single repetitions / AUC for time 75-140 minutes (forskolin response), single repetitions: unit not given here
Details: for insulin release: mean +/- SEM
Procedure: This ex vivo example investigates the ability of pancreatic islets from diabetic db/db mice to restore, in response to treatment with FGF21 and GLP-1 compounds, the ability to release insulin in response to glucose stimulation.
Islets from 25 db/db mice (Charles River), 15 weeks of age, were isolated according to the following procedure:
Animals were killed by cervical dislocation and fixated with pins on a Styrofoam plate. Pancreata were removed and transferred to a Packard vial containing 5 ml collagenase (Life Science, grade II, cat. no. 100502) 300 units/ml (one pancreas/vial) which was kept on ice until all pancreata were removed. Then the pancreata were shaken in the Grant/Edmund S25 thermoshaker at 200 strokes/min. at 37° C. for 5 min. The tissue was transferred to a fresh vial containing 5 ml 150 units/ml collagenase (supernatant was discarded) and shaken again in the thermoshaker for 5 min. The tissue was further shaken 3-5 min. on the thermoshaker, and thereafter all shaking is done by hand for 5-10 sec. each time. These steps were repeated until all tissue was digested. The process was followed continuously under the stereomicroscope and once digested the tissue was pooled and collected in progressively fewer tubes. All supernatants were washed 3 times in HBSS+0.5% NCS (HBSS (10×) from Gibco, cat. no. 14060, is diluted 10× in H2O before use, Newborn Calf Serum (NCS) from Gibco, cat. no. 26010-066), allowed to sediment for 5 min. between each wash, and left on ice, following which the islets were ready for picking. Islets were purified by transferring a little bit of supernatant to a Petri dish, filling up with HBSS+NCS and subsequently transferring (by mouth pipetting) with a constriction pipette to a new Petri dish. From there the islet were re-picked until pure, and then incubated in RPMI 1640 medium (Gibco, cat no 61870-010)+10% NCS at 37° C.
After incubation, the islets were washed in Krebs Ringer solution (115 mM NaCl, 4.7 mM KCl, 2.6 mM CaCl2, 1.2 mM KH2PO4, 1.2 mM MgSO4, 10 mM HEPES, 0.2% BSA, 2 mM glutamine, 5 mM NaHCO3, pH 7.4) and subsequently used in an islet perifusion experiment (Suprafusion 2500 from Brandel). For each of the three preincubation conditions four perifusion columns each with 60 islets were used. The islets were placed in Bio-gel P2 (Bio-Rad. cat. no. 150-4114) in the columns with a nylon mesh below and above the gel. The islets were initially perifused for 40 minutes with Krebs Ringer solution containing 3 mM glucose to obtain a stable baseline of insulin release. After 40 minutes the buffer was exchanged to 15 mM glucose for 30 minutes (time 40-70 min). Then the buffer was exchanged to 15 mM glucose containing 10 μM forskolin (Tocris 1099, batch 3A/86008) for 40 minutes (time 70-110 min). Finally the buffer was exchanged to low glucose (3 mM) for 30 minutes (time 110-140 min). The buffer was set to flow through the perifusion system at a rate of 0.3 ml/minute. Samples were taken every 5 minutes from time 30 to 140 min. Samples were stored at −20° C. and subsequently analysed for insulin, essentially as described by Poulsen et al. in Journal of Biomolecular Screening 12(X); p. 1-8, 2007 (LOCI (Luminescent Oxygen Channeling Immunoassay) sandwich immunoassay).
The results (ng/ml insulin) are shown in Table 1 below as mean+/−standard error of mean (SEM). The figures for the control and the FGF21 compound are based on three repetitions (due to problems with one of the four columns in these two experiments), while the figures for the GLP-1 compound are based on four repetitions.
The corresponding Area Under the Curve (designated AUC) figures were also calculated, and for the statistics the Student's T-test was used.

[1] = insulin AUC per perifusion column, FGF21 = 50 nM Compound F1, GLP-1 = 100 nM Compound G3

B1: Met-FGF21_human (protein, listed as Homo sapiens)
chain: HPIPDSSPLLQFGGQVRQRYLYTDDAQQTEAHLEIREDGTVGGAADQSPESLLQLKALKPGVIQILGVKTSRFLCQRPDGALYGSLHFDPEACSFRELLLEDGYNVYQSEAHGLPLHLPGNKSPHRDPAPRGPARFLPLPGLPPALPEPPGILAPQPPDVGSSDPLSMVGPSQGRSPSYAS
modifications: N-terminal Met; mat_peptide (1)..(181); DISULFID (75)..(93)
restoration of glucose stimulated insulin release ex vivo (db/db mice pancreatic islets, Table 2 results, F1 50 nM, G3 100 nM): capable of restoring glucose stimulated insulin release | AUC for time 35-75 minutes (glucose response), single repetitions [1]: 521.2 and 514.5 and 359.9 | AUC for time 75-140 minutes (forskolin response), single repetitions [1]: 5402 and 4177 and 5832 | AUC for time 75-140 minutes (forskolin response), mean (insulin AUC, FGF21 = 50 nM Compound F1, GLP-1 = 100 nM Compound G3, * FGF21 vs GLP-1): (mean 5137*) | AUC for time 35-75 minutes (glucose response), mean (insulin AUC, FGF21 = 50 nM Compound F1, GLP-1 = 100 nM Compound G3, ** vs control): (mean 465.2**) | insulin release (time 35 min, 3 mM glucose, islets preincubated 48 h with 50 nM Compound F1 or 100 nM Compound G3): 0.92 ± 0.10 ng/mL | insulin release (time 40 min, 3 mM glucose, preincubation 48 h 50 nM F1 or 100 nM G3): 0.71 ± 0.06 ng/mL | insulin release (time 45 min, 15 mM glucose, preincubation 48 h 50 nM F1 or 100 nM G3): 0.68 ± 0.04 ng/mL | insulin release (time 50 min, 15 mM glucose, preincubation 48 h 50 nM F1 or 100 nM G3): 19.56 ± 6.74 ng/mL | insulin release (time 55 min, 15 mM glucose, preincubation 48 h 50 nM F1 or 100 nM G3): 28.33 ± 2.09 ng/mL | insulin release (time 60 min, 15 mM glucose, preincubation 48 h 50 nM F1 or 100 nM G3): 12.07 ± 0.50 ng/mL | insulin release (time 65 min, 15 mM glucose, preincubation 48 h 50 nM F1 or 100 nM G3): 11.13 ± 0.66 ng/mL | insulin release (time 70 min, 15 mM glucose, preincubation 48 h 50 nM F1 or 100 nM G3): 13.37 ± 0.63 ng/mL | insulin release (time 75 min, 15 mM glucose + 10 μM forskolin, preincubation 48 h 50 nM F1 or 100 nM G3): 13.47 ± 0.78 ng/mL | insulin release (time 80 min, 15 mM glucose + 10 μM forskolin, preincubation 48 h 50 nM F1 or 100 nM G3): 77.17 ± 14.84 ng/mL | insulin release (time 85 min, 15 mM glucose + 10 μM forskolin, preincubation 48 h 50 nM F1 or 100 nM G3): 160.00 ± 16.52 ng/mL | insulin release (time 90 min, 15 mM glucose + 10 μM forskolin, preincubation 48 h 50 nM F1 or 100 nM G3): 154.00 ± 15.00 ng/mL | insulin release (time 95 min, 15 mM glucose + 10 μM forskolin, preincubation 48 h 50 nM F1 or 100 nM G3): 148.33 ± 17.95 ng/mL | insulin release (time 100 min, 15 mM glucose + 10 μM forskolin, preincubation 48 h 50 nM F1 or 100 nM G3): 125.00 ± 17.35 ng/mL | insulin release (time 105 min, 15 mM glucose + 10 μM forskolin, preincubation 48 h 50 nM F1 or 100 nM G3): 99.40 ± 11.84 ng/mL | insulin release (time 110 min, 15 mM glucose + 10 μM forskolin, preincubation 48 h 50 nM F1 or 100 nM G3): 79.97 ± 8.43 ng/mL | insulin release (time 115 min, low glucose (3 mM), preincubation 48 h 50 nM F1 or 100 nM G3): 69.63 ± 9.61 ng/mL | insulin release (time 120 min, low glucose (3 mM), preincubation 48 h 50 nM F1 or 100 nM G3): 56.23 ± 8.37 ng/mL | insulin release (time 125 min, low glucose (3 mM), preincubation 48 h 50 nM F1 or 100 nM G3): 30.03 ± 6.67 ng/mL | insulin release (time 130 min, low glucose (3 mM), preincubation 48 h 50 nM F1 or 100 nM G3): 13.16 ± 3.21 ng/mL | insulin release (time 135 min, low glucose (3 mM), preincubation 48 h 50 nM F1 or 100 nM G3): 5.76 ± 0.70 ng/mL | insulin release (time 140 min, low glucose (3 mM), preincubation 48 h 50 nM F1 or 100 nM G3): 3.92 ± 0.37 ng/mL
